According to US20220228157A1, “GENE EDITING IN DIVERSE BACTERIA” (priority 2019, published 2022):
Read-outs that look alike come from different tables or passages of the source.

Key:
[1] = system: Pseudomonas aeruginosa PAO1; test: Recombineering efficiency by selective plating; assay type: cell-based
Text: To test the activity of PapRecT and CspRecT in these three organisms, the broad-host-range pORTMAGE system (Nyerges et al., Proc. Natl. Acad. Sci. U.S.A. 113, 2502-2507 (2016)) was built on as described above. For experiments in E. coli PapRecT or CspRecT was subcloned in place of Redβ into pORTMAGE311B (Szili et al., Antimicrob. Agents Chemother. AAC.00207-19 (2019) doi:10.1128/AAC.00207-19) (FIGS. 10A-10B; Addgene accession: #120418), which transiently disrupts MMR with EcMutL_E32K, and whose RSF1010 origin of replication and m-toluic-acid-based expression system allows the plasmid to be deployed over a broad range of bacterial hosts (Honda et al., Proc. Natl. Acad. Sci. U.S.A. 88, 179-183 (1991); Gawin et al., Microb. Biotechnol. 10, 702 (2017)). These same pORTMAGE-based constructs were used for testing in C. freundii and K. pneumoniae. […] It was found, however, that the efficiency of the plasmid construct was lower in P. aeruginosa than in the enterobacterial species that pORTMAGE was optimized for. Therefore, to increase editing efficiency in P. aeruginosa, i.) ribosomal binding sites (RBS) for PapRecT and EcMutL were optimized, ii.) EcMutL_E32K was replaced with its equivalent homologous mutant from P. aeruginosa (PaMutL_E36K), iii.) the native P. aeruginosa coding sequence for PapRecT was incorporated instead of the E. coli codon-optimized version (FIG. 13).
Virulent strains of P. aeruginosa are a frequent cause of acute infections in healthy individuals, as well as chronic infections in high-risk patients, such as those suffering from cystic fibrosis (Marvig et al., Nat. Genet. 47, 57-64 (2015)). The rate of antibiotic resistance in this species is growing, with strains adapting quickly to all clinically applied antibiotics (AbdulWahab et al., Lung India Off. Organ Indian Chest Soc. 34, 527-531 (2017); Tacconelli et al., Lancet Infect. Dis. 18, 318-327 (2018)). […] By genotyping and characterizing resistant colonies, the Minimum Inhibitory Concentration (MIC) of CIP for various resistant genotypes could be determined (Table 2, FIG. 14). […]

E. coli = test: Allelic recombination frequency, selective vs non-selective plates; assay type: cell-based, Escherichia coli; settings: RecT alone
Procedure: Four variants known to enable high genome editing efficiency were selected (Redβ and PapRecT in E. coli, LrpRecT in L. lactis, and MspRecT in M. smegmatis), and tested codon optimized versions of all four in both E. coli (gram-negative), and L. lactis (gram-positive). Genome editing efficiency was measured by introducing oligos encoding known antibiotic resistance mutations, and compared the antibiotic resistant cell counts to the total number of viable cells in the population (FIGS. 17E-17F). […] In L. lactis, LrpRecT was the only functional homolog, and improved oligo incorporation 7,700-fold, while the three other RecT variants were nearly non-functional, improving oligo incorporation less than 7-fold (FIG. 17H). No RecT protein functioned well both in E. coli and L. lactis.
A single colony of E. coli was grown overnight to saturation. In the morning 30 μL of dense culture was inoculated into 3 mL of fresh media and grown for 1 hour. To induce gene expression of the pARC8 vector for recombineering experiments, L-arabinose was added to a final concentration of 0.2% (w/v) and the cells were grown an additional hour. 1 mL of cells were pelleted at 4° C. by centrifugation at 12,000×g for 2.5 minutes and washed twice with 1 mL of ice-cold dH2O. Cells were resuspended in 50 μL ice-cold dH2O containing DNA and transferred to a pre-chilled 0.1 cm electroporation cuvette.
Electrocompetent cells were electroporated with 90-mer oligos at: 1 uM for E. coli, 50 μg for L. lactis, and 10 uM for C. crescentus. 70-mer oligos were used at 1 μg for M. smegmatis. All oligos were obtained from IDT and can be found under “Oligonucleotides for genome editing” in materials and methods. For dsDNA experiments L. lactis was electroporated with 1.5 μg purified linear dsDNA. Cells were electroporated using a Bio-Rad gene pulser set to 25 μF, 200 S2, and 1.8 kV for E. coli, 2.0 kV for L. lactis, and 1.5 kV for C. crescentus and to 1000Ω and 2.5 kV for M. smegmatis. Immediately after electroporation, cells were recovered in fresh media for 3 hours for E. coli, 1 hour for L. lactis, overnight for M. smegmatis and overnight for C. crescentus. L. lactis recovery media was supplemented with MgCl2 and CaCl2) at a concentration of 20 mM and 2 mM, respectively. E. coli recovery media was supplemented with carbenicillin. M. smegmatis recovery media was supplemented with hygromycin. C. crescentus recovery media was supplemented with 0.3% xylose and kanamycin. After recovery, the cells were serial diluted and plated on non-selective vs. selective agar plates to obtain approximately 50-500 CFU/plate. Colonies were counted using a custom script in Fiji, and allelic recombination frequency was calculated by dividing the number of colonies on selective plates, with the number of colonies on non-selective plates.

Molecule	Editing performance in P. aeruginosa [1]	Improvement of oligo incorporation (E. coli) [fold]	Editing performance in P. aeruginosa ([1]; listed as SSAP SEQ ID NO: 24)
Redβ: Redβ SSAP from Enterobacteria phage λ, SEQ ID NO: 474 (protein, Bacteriophage Lambda) MSTALATLAGKLAERVGMDSVDPQELITTLRQTAFKCDASDAQFIALLIVANQYGLNPWTKEIYAFPDKQNGIVPVVGVDGWSRIINENQQFDGMDFEQDNESCTCRIYRKDRNHPICVTEWMDECRREPFKTREGREITGPWQSHPKRMLRHKAMIQCARLAFGFAGIYDKDEAERIVENTAYTAERQPERDITPVNDETMQEINTLLIALDKTWDDDLLPLCSQIFRRDIRASSELTQAEAVKALGFLKQKATEQKVAA	does not work	1600	–
PapRecT: SSAP from Pseudomonas aeruginosa, SEQ ID NO: 24, UniParc ID: UPI0001E9E6CB (protein, listed as Pseudomonas aeruginosa) MGTALTPLLTKFATRYEMGTTPEEVANTLKQTCFKGQVNDSQMVALLIVADQYKLNPFTKELYAFPDKNNGIVPVVGVDGWARIINENPQFDGMEFSMDQQGTECTCKIYRKDRSHAISATEYMAECKRNTQPWQSHPRRMLRHKAMIQCARLAFGFAGIYDQDEAERIVERDVTPAEQYEDVSEAICLIKDSPTMEDLQAAFSNAWKAYKTKGARDQLTAAKDQRKKELLDAPIDVEFEETGDDRAA	performed the best	2700	functions at high efficiency
